The record followed here is doi:10.1101/2025.03.11.642517 (bioRxiv, 2025).

The target of test [1] is NiV F expressed in HeLa cells under IRES-GFP (Nipah virus, Malaysia, UniProt Q9IH63). Nature of the test: immunostaining of cells or tissue.
The target of test [2] is DS90 Fc dimer (DS90 nanobody fused to human Fc) (alpaca (Vicugna pacos)). Nature of the test: SPR. For orientation: In SPR one partner is held on a chip, and binding of the other changes the refractive index at the surface.
In test [3] the target is DS76 FcM (DS76 nanobody fused to human monomeric Fc) (alpaca (Vicugna pacos)). Nature of the test: SPR.
The target of test [4] is DS90 FcM (DS90 nanobody fused to human monomeric Fc) (alpaca (Vicugna pacos)). Nature of the test: SPR.
Test [5] addresses DS34 FcM (DS34 nanobody fused to human monomeric Fc) (alpaca (Vicugna pacos)). Nature of the test: SPR.

Positions count from the first letter of the chain named.

B1: DS29 clone, E. coli crude extract of the bacterial display library (VHH)
VHH: VQLVESGGGLVQPGGSLRLSCAASGFTFDDYGMSWVRQAPGKGLEWVSAISWNGGGTYYAESMKGRFTISRDNAKNTVYLQMNGLKPEDTAVYYCAKPSTYSGSWLTDFGSWGQGTQVTVSS
For B1, the binding result in test [1] is listed as “binds”.

B2: Biotinylated prefusion NiV F with AviTag (domain or fragment)
chain: ILHYEKLSKIGLVKGVTRKYKIKSNPLTKDIVIKMIPNVSNMSQCTGSVMENYKTRLNGILTPIKGALEIYKNNTHDLVGDVRLAGVIMAGVAIGIATAAQITAGVALYEAMKNADNINKLKSSIESTNEAVVKLQETAEKTVYVLTALQDYINTNLVPTIDKISCKQTELSLDLALSKYLSDLLFVFGPNLQDPVSNSMTIQAISQAFGGNYETLLRTLGYATEDFDDLLESDSITGQIIYVDLSSYYIIVRVYFPILTEIQQAYIQELLPVSFNNDNSEWISIVPNFILVRNTLISNIEIGFCLITKRSVICNQDYATPMTNNMRECLTGSTEKCPRELVVSSHVPRFALSNGVLFANCISVTCQCQTTGRAISQSGEQTLLMIDNTTCPTAVLGNVIISLGKYLGSVNYNSEGIAIGPPVFTDKVDISSQISSMNQSLQQSKDYIKEAQRLLDT
modifications: biotin (on the AviTag, by BirA)
Take B2: the binding result in test [2] is reported as “binds”. Besides, the figures for the Kd in test [3], in test [4] and in test [5] were 303 nM, 4.83 nM and 23.4 nM, respectively.

B3: DS90 clone, E. coli crude extract of the bacterial display library (VHH)
VHH: VQLVESGGGLVQAGGSLRLSCAASGRTFSSYVMGWYRQAPGKEREFVARISWSGGHTHSADSVKGRFTISRDNAKNTVYLQMNSLKPDDTAIYYCNAEPTVTGSWFTPGLQSYWGQGTQVTVSS
Regarding B3, in test [1], the binding result was “binds”.

B4: DS34 clone, E. coli crude extract of the bacterial display library (VHH)
VHH: B3 VHH with V101A
Regarding B4, the binding result in test [1] is “binds”.

B5: Bacterially expressed DS90-cMyc (VHH)
VHH: B3 VHH
As to B5, the binding result in test [1] is “binds”.

B6: DS76 clone, E. coli crude extract of the bacterial display library (VHH)
VHH: B3 VHH with R18G, T100S
Consider B6, for which the binding result in test [1] is reported as “binds”.
